The test system of one data set is primary xenografts. Conditions: circulates as non-covalent complex with SA; cited from earlier work.
Another data set deals with HSA (Homo sapiens, UniProt P02768). The experiment in a line: Association constants of Bchl-Ds to HSA (spectroscopic titration). Conditions: for HSA association constant Ka(HSA): 1:1 non-covalent complex with HSA. Type of data set: binding. From the text:
Association constants of Bchl-Ds to HSA were deduced from spectroscopic measurements of the ratio between Bchl-Ds and HSA for different concentrations of HSA using both factor analysis, as previously described and by monitoring changes in the near infrared (NIR) absorption of the Bchl-Ds during titration with HSA. Briefly, all four Bchl-Ds present broad NIR absorption with reduced intensity in SA-free aqueous solutions. Upon addition of SA, they form 1:1 complexes with the added protein ((Bchl-D)/SA) with strong and narrow NIR absorption bands. The narrow-band absorption is proportional to the ((Bchl-D)/SA) concentration enabling calculation of the association constant Ka through the following equation: [drawing 1]
Where [SA]0 is the analytical concentration of the added SA and [(Bchl-D/SA)] is the concentration of the Bchl-D complex with SA calculated from the spectral changes.

Data set [1] deals with large MDA-MB-231-RFP tumors. Briefly: Fluorescence imaging of dissected tumors (spatial distribution). It is filed as in vivo, CD-1 nude female mice. Conditions: 15 mg/kg i.v.
The subject of data set [2] is MDA-MB-231-RFP tumors. The experiment in a line: In vivo competition between STL-6014 and free c(RGDfK). Details: species or system CD-1 nude female mice. How it is done:
STL-6014 (140 nmol, 7.5 mg/kg) was i.v. injected to the tail vein of mice one hour after being pre-injected with an excess (8.5 μmol) of c(RGDfK) free peptide. Whole-body fluorescence images were recorded up to 24 hours post-STL-6014 injection (IVIS®, Xenogen Corp., Alameda, CA, USA) with the respective filter settings, described above.

A short description of data set [3]: Biodistribution studies (tissue extraction, fluorescence). It is filed as in vivo, CD-1 nude female mice. How it is done:
Anaesthetized mice were i.v. injected with 15 mg/kg STL-6014 (n = 27) or 9 mg/kg STL-7012 (n = 15). At each indicated time point, three animals were sacrificed and blood, kidney, liver and tumor tissues were collected into pre-weighed vials and frozen at -20°C. Tissue samples were homogenized in methanol (100 mg tissue/ml) and extracted the next morning by centrifugation (13,000 × g five minutes) at room temperature. Supernatants were diluted in methanol by a factor of two and drug concentration was determined by fluorescence measurements (Varian - Cary Eclipse spectrofluorimeter, Palo Alto, California, USA) at 750 nm (peak values). Drug concentrations were interpolated from a fluorescence calibration curve, based on predetermined drug concentrations using absorption spectroscopy.

The nature of a further data set: in vivo. The conditions noted are these: female, CD-1 nude, mouse.
In data set [4] the test system is MDA-MB-231-RFP tumors. Conditions: mouse, in vivo.
Procedure: (§1) Mammary fat pads (left, bottom nipple) of female mice were inoculated with harvested MDA-MB-231-RFP human breast cancer cells (4 × 10^6 in 100 μl saline). Tumors were classified as 'small' (≤100 mm^3) at one to two weeks from time of cell injection, or 'large' after three to four weeks (necrotic tumors, 250 to 500 mm^3). To avoid tumor burden, mice were sacrificed (cervical dislocation) when tumor size reached 10% of body weight or at 90 days post-implantation. External caliper measurements, length (L), width (W) and depth (D) were used to calculate in vivo tumor volume according to the formula: V = L/2 · W/2 · D/2 · π · 4/3 [46].
(§2) The in Vivo Optical Imaging System (IVIS®100/XFO-12, Xenogen Corp., Alameda, CA, USA) was used to acquire fluorescent images of the RFP-expressing tumors, as well as Bchl-D compounds associated with tissues and organs after their intravenous (i.v.) infusion to the tested animals. The field of view was 15 cm. RFP fluorescence, in units of photons/sec, was detected using 525/50 nm and 612/75 nm filter sets for excitation and emission, respectively, with one second integration time. NIR fluorescence of the different Bchl-Ds, in units of photons/sec, was detected using 680/30 nm and 847/75 nm filter sets for excitation and emission, respectively, at an integration time of five seconds. Background fluorescence for all quantitative analyses was calculated by recording the average fluorescence (photons/sec)/cm^2 from three animals in three different areas around and within the tumor of untreated animals provided with a similar diet for three days before measurements.
(§3) Drug accumulation was determined following i.v. administration of molar equivalents of the Bchl-D moiety to the tail vein of mice fed with a chlorophyll-free, purified diet (Harlan Teklad, Harlan Laboratories, Indianapolis, IN, USA) for three days before administration (in order to reduce skin and food autofluorescence). Before imaging, mice were anesthetized by intraperitoneum injection of a 30 μl mixture of 85:15 ketamine:xylazine.
(§4) Xenogen Living Image Software (Xenogen Corp., Alameda, CA, USA) was used for sequential fluorescent image acquisition [see Additional file 1] and superimposition of photographic images of mice and color-coded fluorescent images.
Details of data set [5]: method as in PMID 11216533. The conditions noted are these: cited from earlier work.
The test system of the next data set is αVβ3 integrin receptors. Details: method as in PMID 16309948. The conditions noted are these: cited from earlier work.
For data set [6], the system named is MDA-MB-231-RFP tumors. The experiment in a line: Whole-body fluorescence imaging of drug accumulation and clearance in tumors. Conditions: large necrotic tumors, 9 mg/kg i.v., from one hour post injection.
Procedure: as §1, §2, §3, §4
Where [7] appears, read: 48 to 72 hours post-administration.

The values that follow come from publication PMC2917020, “Novel design principles enable specific targeting of imaging and therapeutic agents to necrotic domains in breast tumors” (Breast Cancer Research : BCR, 2010).

Where a name gives a salt, the structure may show the parent alone.

Chain of HSA (P02768 25-609): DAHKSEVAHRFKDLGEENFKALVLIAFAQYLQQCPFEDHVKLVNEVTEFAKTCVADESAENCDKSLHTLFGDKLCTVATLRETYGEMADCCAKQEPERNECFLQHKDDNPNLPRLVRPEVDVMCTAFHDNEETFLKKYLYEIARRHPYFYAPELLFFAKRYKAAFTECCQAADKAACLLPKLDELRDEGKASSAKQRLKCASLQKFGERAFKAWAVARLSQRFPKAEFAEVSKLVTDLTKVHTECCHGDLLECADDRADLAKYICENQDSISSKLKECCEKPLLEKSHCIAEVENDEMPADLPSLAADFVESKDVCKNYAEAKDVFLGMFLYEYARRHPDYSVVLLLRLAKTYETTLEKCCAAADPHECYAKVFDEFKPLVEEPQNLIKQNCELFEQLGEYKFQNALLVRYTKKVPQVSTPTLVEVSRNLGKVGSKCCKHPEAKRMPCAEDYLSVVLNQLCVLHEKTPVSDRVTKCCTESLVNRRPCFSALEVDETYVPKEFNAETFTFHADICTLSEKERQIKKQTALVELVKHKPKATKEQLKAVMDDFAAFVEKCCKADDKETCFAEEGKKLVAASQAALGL

Regarding `CC[C@H]1c2cc3[n-]c(c(CC(=O)OC)c4nc(cc5[n-]c(cc(n2)[C@@H]1C)c(C(C)=O)c5C)[C@@H](C)[C@@H]4CCC(=O)[O-])c(C(=O)NCCS(=O)(=O)[O-])c3C.[H+].[H+].[Pd+2]` [WST11], the “accumulation in the tumor tissue” value with primary xenografts was “no accumulation in the tumor tissue”. Further, at HSA, the “HSA association constant Ka(HSA)” value is 0.54 ± 0.07 µM⁻¹.
A word on the Tmax: it is the time at which the peak concentration occurs. As usually defined, the half-life is the time needed for the level to fall by half in the phase considered. With `CC[C@H]1c2cc3[nH]c(c(CC(=O)OC)c4nc(cc5[nH]c(cc(n2)[C@@H]1C)c(C(C)=O)c5C)[C@@H](C)[C@@H]4CCC(=O)NCCCC[C@@H]1NC(=O)[C@@H](Cc2ccccc2)NC(=O)[C@H](CC(=O)O)NC(=O)CNC(=O)[C@H](CCCNC(=N)N)NC1=O)c(C(=O)NCCS(=O)(=O)O)c3C` [STL-6014, 3^1-oxo-15-methoxycarbonylmethyl-Rhodobacteriochlorin 13^1-(2-sulfoethyl)amide-17^3-c(RGDfK)amide potassium salt], the “location of fluorescence signal in dissected tumor” value in data set [1] (beyond 16 hours post-injection) is reported as “only observed in the necrotic domain”. In addition, the “location of fluorescence signal in dissected tumor” value in data set [1] (four hours post injection) is recorded as “within the viable tumor region alone”. The “STL-6014 uptake and accumulation after pre-administration of free c(RGDfK)” value in the data set with MDA-MB-231-RFP tumors [2] (large tumors, data not shown) is “not affected”. For the same compound, in the data set with MDA-MB-231-RFP tumors [2] (small tumors, 7.5 mg/kg (140 nmol) i.v. one hour after 61-fold molar excess c(RGDfK)), the “STL-6014 tumor fluorescence after pre-injection of free c(RGDfK)” value is on record as “almost no STL-6014 fluorescence was detected in the tumor”. For the same compound, in data set [3] (15 mg/kg i.v.), the “t1/2 of hepatic clearance” value is “about four” and the “time to clear to nearly background levels in normal tissues” value is “less than 72 hours”. Also, in data set [3] (setting [7]), the “tumor level relative to blood” value is given as “about two orders of magnitude”; the “tumor level relative to kidney, liver, intestines, lung and skin” value is “about two”. Also, the “tumor level relative to spleen, heart, brain, fat and muscle” value in [3] (48 to 72 hours post-administration, data not shown) is reported as “about 10 fold”. Further, the “time of peak levels in normal tissues post-injection” value in data set [3] (blood, liver, kidney, 15 mg/kg i.v.) was “less than five”. For the same compound, in [3] (large tumors, 15 mg/kg i.v.), the “time of peak concentration in tumors post-injection” value is listed as “eight”. In [3] (large tumors, 15 mg/kg i.v., eight hours post-injection), the “peak concentration in tumors” value is reported as 11 μg drug/gr tumor tissue. Besides, the “peak tumor level as share of the initial drug dose” value in [3] (large tumors, eight hours post-injection) is given as “about 3.0%”. The Kd on HSA (as restated in discussion, read-out: Ka, association with SA (converted)) is 8.33 µM. The time to peak (Tmax) in the data set “in vivo” was 48 to 72 h. Moreover, the half-life in the data set “in vivo” (iv, 15 mg/kg, t1/2 of tumor fluorescence, mono-exponential decay) is 840 ± 90 min. Further, in the data set with MDA-MB-231-RFP tumors [4], the “time to full clearance from tumor” value is “less than two” and the “tumor half lifetime (T1/2)” value is reported as “in the range of days”. In the data set on MDA-MB-231-RFP tumors [4] (iv, 15 mg/kg), the “clearance from small tumors relative to large tumors (faster)” value was “more than 10 fold”; the “persistence of tumor fluorescence” value is given as “still detectable at nine days”; the “t^1_1/2 of tumor fluorescence, bi-exponential decay” value was found to be 12.0 ± 3.5 h; the “t^2_1/2 of tumor fluorescence, bi-exponential decay” value turned out to be 210.0 ± 86.0 h. Also, in the data set with MDA-MB-231-RFP tumors [4] (iv, 15 mg/kg), the “time for tumor fluorescence to return to background values” is at most 48 h and the “time of peak tumor fluorescence after administration” value was “six to eight”.
As to Cyclo-Arg-Gly-Asp-D-Phe-Lys [c(RGDfK)], in data set [5], the “half life in a similar animal model” value is on record as “minutes”. Further, the “Ka, association of c(RGDfK) moiety with αVβ3 integrin receptors” value in the data set with αVβ3 integrin receptors is reported as “about 10^9 M^-1”.
Take `CC[C@H]1c2cc3[nH]c(c(CC(=O)OC)c4nc(cc5[nH]c(cc(n2)[C@@H]1C)c(C(C)=O)c5C)[C@@H](C)[C@@H]4CCC(=O)O)c(C(=O)NCCS(=O)(=O)[O-])c3C.[K+]` [STL-7012, 3^1-oxo-15-methoxycarbonylmethyl-Rhodobacteriochlorin 13^1-(2-sulfoethyl)amide dipotassium salt]: the “tumor fluorescence in whole-body imaging” value with MDA-MB-231-RFP tumors [6] is reported as “No specific tumor fluorescence”. Further, the “accumulation in tumor, fluorescence of tissue extracts” value in data set [3] (9 mg/kg i.v., any time longer than one hour post administration) is “no STL-7012 accumulation in the tumor”. The “HSA association constant Ka(HSA)” value at HSA stood at 0.44 ± 0.09 µM⁻¹.
